Test results from the Human Domainome abundance scans (Beltran et al. 2025).
± gives the uncertainty stated by the source.

B1: Protein C-ets-1, residues 55 to 135; numbered along this chain, P14921 (parent)
chain: GFTKEQQRLGIPKDPRQWTETHVRDWVMWAVNEFSLKGVDFQKFCMNGAALCALGKDCFLELAPDFVGDILWEHLEILQKE

Variants of: B1
Test: abundance fitness (aPCA) (normalised: wild type 0, dead -1); higher = more abundant; growth selection in yeast, the domain comes from the species named
Conditions: Homo sapiens

| Variant | abundance fitness |
| --- | --- |
| E5S | -0.245 ± 0.046 |
| Q42G | 0.007 ± 0.035 |
| Q42Y | -0.291 ± 0.073 |
| Q42K | -0.075 ± 0.076 |
| Q42F | -0.664 ± 0.11 |
| G10L | -0.244 ± 0.038 |
| G10W | -0.364 ± 0.048 |
| G10H | -0.072 ± 0.09 |
| W72T | -1 ± 0.19 |
| W72D | -1.07 ± 0.38 |
| W72Q | -0.804 ± 0.11 |
| W72P | -1.15 ± 0.23 |
| E61V | -0.52 ± 0.048 |
| E61A | -0.012 ± 0.032 |
| E61I | -0.685 ± 0.11 |
| K13V | -0.1 ± 0.049 |
| K13D | -0.054 ± 0.09 |
| M46R | -0.507 ± 0.043 |
| M46W | -0.631 ± 0.11 |
| M46D | -0.777 ± 0.12 |
| M46P | -0.852 ± 0.076 |

| Variant | abundance fitness |
| --- | --- |
| M46H | -0.441 ± 0.12 |
| M46Y | -0.203 ± 0.083 |
| M46S | -0.724 ± 0.05 |
| M46I | -0.154 ± 0.074 |
| M46T | -0.477 ± 0.058 |
| A30P | -0.8 ± 0.074 |
| A30T | 0.003 ± 0.04 |
| A30Y | -0.188 ± 0.13 |
| R16P | -0.643 ± 0.069 |
| R16F | -0.024 ± 0.066 |
| R16V | -0.055 ± 0.033 |
| R16M | -0.029 ± 0.051 |
| R16I | -0.038 ± 0.087 |
| A63S | -0.114 ± 0.038 |
| A63P | -1.01 ± 0.13 |
| A63D | -0.873 ± 0.13 |
| A63K | -0.635 ± 0.096 |
| Q7F | -0.121 ± 0.084 |
| Q7P | -0.294 ± 0.048 |
| Q7K | 0.074 ± 0.068 |
| Q7G | -0.047 ± 0.029 |

| Variant | abundance fitness |
| --- | --- |
| Q7E | 0.089 ± 0.052 |
| E33W | -0.179 ± 0.038 |
| E33C | -0.132 ± 0.058 |
| E33A | -0.071 ± 0.033 |
| E33L | -0.503 ± 0.038 |
| E33Y | -0.099 ± 0.062 |
| G48A | -0.972 ± 0.093 |
| G48S | -0.911 ± 0.066 |
| G48E | -0.806 ± 0.17 |
| E20T | -0.036 ± 0.04 |
| E81D | -0.003 ± 0.26 |
| C45A | 0.053 ± 0.033 |
| C45E | 0.022 ± 0.053 |
| C45K | -0.067 ± 0.08 |
| C45L | -0.087 ± 0.027 |
| D65V | -0.043 ± 0.041 |
| D65P | 0.076 ± 0.039 |
| D65G | 0.024 ± 0.027 |
| D69N | -0.002 ± 0.064 |
| D69K | -0.057 ± 0.067 |
| D69T | -0.134 ± 0.055 |

| Variant | abundance fitness |
| --- | --- |
| E76A | -0.043 ± 0.044 |
| E76L | -0.094 ± 0.043 |
| E76D | -0.015 ± 0.059 |
| E76Y | 0.029 ± 0.036 |
| E76R | -0.072 ± 0.035 |
| G68Q | -0.727 ± 0.11 |
| G68D | -0.792 ± 0.12 |
| G68C | -0.156 ± 0.094 |
| G68E | -0.994 ± 0.12 |
| G68N | -0.265 ± 0.09 |
| G68L | -0.549 ± 0.045 |
| G68V | -0.261 ± 0.026 |
| G68A | -0.116 ± 0.032 |
| F66E | -0.002 ± 0.069 |
| F66P | 0.048 ± 0.044 |
| F66K | 0.053 ± 0.076 |
| F44W | -0.138 ± 0.05 |
| F44T | -0.766 ± 0.16 |
| F44M | -0.275 ± 0.074 |
| D14K | -0.547 ± 0.071 |
| D14G | -0.844 ± 0.048 |
